Columns and labels:
[1] = target: human PD-L1 on cells (CHO cells stably expressing human PD-L1; MDAMB231, HCC827, H226, doxycycline-treated A549-iPDL1 cells and their tumors) (human) (UniProt Q9NZQ7); test: flow cytometry on hPD-L1 cells, serial dilutions of WL12; competitor BD-MIH1-PE
[2] = target: recombinant human PD-L1(B7-H1)-His-tag protein (catalog #9049-B7, R&D systems) (human) (UniProt Q9NZQ7); test: FRET competitive inhibition of PD-L1-His-tag binding to PD-1-Ig, Cheng-Prusoff
[3] = target: human PD-L1 on cells (CHO cells stably expressing human PD-L1; MDAMB231, HCC827, H226, doxycycline-treated A549-iPDL1 cells and their tumors) (human) (UniProt Q9NZQ7); test: flow cytometry on hPD-L1 cells, serial dilutions of WL12; competitor Cy5-AtzMab
[4] = target: human PD-L1 on cells (CHO cells stably expressing human PD-L1; MDAMB231, HCC827, H226, doxycycline-treated A549-iPDL1 cells and their tumors) (human) (UniProt Q9NZQ7); test: cell-based or functional assay
[5] = target: recombinant human PD-L1(B7-H1)-His-tag protein (catalog #9049-B7, R&D systems) (human) (UniProt Q9NZQ7); test: FRET competitive inhibition of PD-L1 binding to PD-1
[6] = target: human PD-L1 on cells (CHO cells stably expressing human PD-L1; MDAMB231, HCC827, H226, doxycycline-treated A549-iPDL1 cells and their tumors) (human) (UniProt Q9NZQ7); test: flow cytometry, in vitro binding; competitor Cy5-conjugated AtzMab
[7] = target: human PD-L1 on cells (CHO cells stably expressing human PD-L1; MDAMB231, HCC827, H226, doxycycline-treated A549-iPDL1 cells and their tumors) (human) (UniProt Q9NZQ7); test: flow cytometry on Cho-hPD-L1 and MDAMB231 cells; competitors Cy5-AtzMab, Cy5-AveMab, Cy5-DurMab (ends not tied to one mAb)
[8] = target: recombinant human PD-L1(B7-H1)-His-tag protein (catalog #9049-B7, R&D systems) (human) (UniProt Q9NZQ7); test: FRET competitive inhibition of PD-L1-His-tag (80 nM) binding to PD-1-Ig (20 nM)
[9] = target: human PD-L1 on cells (CHO cells stably expressing human PD-L1; MDAMB231, HCC827, H226, doxycycline-treated A549-iPDL1 cells and their tumors) (human) (UniProt Q9NZQ7); test: hPD-L1 cells, 1 uM blocking dose of WL12; competitor [^64Cu]WL12
[10] = target: human PD-L1 on cells (CHO cells stably expressing human PD-L1; MDAMB231, HCC827, H226, doxycycline-treated A549-iPDL1 cells and their tumors) (human) (UniProt Q9NZQ7); test: radiotracer on hPD-L1 cells, 1 h, gamma counting

human PD-L1 on cells (CHO cells stably expressing human PD-L1; MDAMB231, HCC827, H226, doxycycline-treated A549-iPDL1 cells and their tumors) (human), sequence (Q9NZQ7 19-290): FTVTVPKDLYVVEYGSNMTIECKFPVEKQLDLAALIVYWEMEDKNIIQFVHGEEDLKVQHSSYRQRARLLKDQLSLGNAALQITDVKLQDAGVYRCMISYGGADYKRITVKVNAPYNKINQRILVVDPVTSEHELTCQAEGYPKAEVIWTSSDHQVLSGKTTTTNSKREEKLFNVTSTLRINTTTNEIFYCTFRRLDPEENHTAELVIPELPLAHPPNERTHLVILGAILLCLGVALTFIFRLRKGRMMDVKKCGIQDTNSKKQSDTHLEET
recombinant human PD-L1(B7-H1)-His-tag protein (catalog #9049-B7, R&D systems) (human), sequence (Q9NZQ7 19-239 limits assumed): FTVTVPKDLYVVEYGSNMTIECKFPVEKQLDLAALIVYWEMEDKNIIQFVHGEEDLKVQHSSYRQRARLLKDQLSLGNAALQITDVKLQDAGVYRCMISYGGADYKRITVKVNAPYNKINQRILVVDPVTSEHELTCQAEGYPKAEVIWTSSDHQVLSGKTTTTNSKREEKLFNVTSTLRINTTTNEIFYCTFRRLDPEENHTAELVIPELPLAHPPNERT

Substance: WL12 (unmodified PD-L1 binding peptide)
- IC50 [1]: 37.8 nM
- Ki [2]: 1.1 nM
- IC50 [3]: 2.5 nM
- reduction in % ID/g of [^64Cu]WL12 in hPD-L1 tumors on co-injection of excess WL12 (50 ug, 2 mg/kg), 2 h [4]: > 75%
- IC50 [5]: 22 nM
- IC50 [6]: 37.8 nM
- inhibitory concentrations [7]: 5 nM
- IC50 [8]: 20.3 nM
- reduction in bound [^64Cu]WL12 [9]: > 95%

Substance: WL12-Cu^2+ complex (copper complex of WL12D) (peptide)
- Ki [2]: 1.38 nM
- IC50 [5]: 2.9 nM
- IC50 [8]: 2.97 nM

Substance: WL12-DOTAGA (WL12D) (peptide)
- Ki [2]: 10.4 nM
- IC50 [5]: 23 nM
- IC50 [8]: 22.2 nM

Substance: [^64Cu]WL12 (peptide)
- accumulation of [^64Cu]WL12 in A549-iPDL1 tumors after 72 h doxycycline against A549 control tumors [4]: 65%
- radioactivity uptake in hPD-L1 tumors at 1 h, percentage of injected dose/g [4]: 14.9 % ID/g
- uptake of the incubated dose [10]: > 50%

From patent US20190314531A1
